According to patent publication US20030180282A1, “Method of treatment of thrombotic events” (priority 2002, published 2003):

How the values were obtained:
platelets [1] = assay: platelet aggregation in platelet-rich plasma of AMI patients during first 24 hours after r-PA or t-PA; type: in vivo, human; details: 3, 6, 12, 24 hours; r-PA: all agonists except ristocetin
Text: Twenty-three consecutive patients admitted to the emergency rooms of St. Agnes Hospital, or the Union Memorial Hospital between July and December of 1996 with a diagnosis of acute myocardial infarction were included. All patients were enrolled in the randomized trial of Reteplase (r-PA) versus accelerated Alteplase (t-PA) for the treatment of acute myocardial infarction, (GUSTO-III trial). […]
The schedule of blood drawing, sample preparation and processing were critical issues of the study design, and were monitored by an independent observer. […]
Citrate and whole blood were immediately mixed 1:9 and then centrifuged at 1200 g for 2.5 minutes in order to obtain platelet-rich plasma (PRP) which was kept at room temperature for use within 1 hour. Platelet counts were determined for each PRP sample with Coulter Counter ZM (Coulter Co., Hialeah, Fla.). […] PA was expressed as the maximum percentage of light transmittance change from the baseline using platelet-poor plasma as a reference at the end of the recording time. PA curves were recorded for 4 minutes and analyzed according to internationally established standards (see, e.g. Ruggeri, Z. M. (1994) Semin. Hemat. 31:229-239). […]

platelets [2] = assay: in vitro whole blood flow cytometry of platelet receptors and platelet-monocyte aggregates; type: cell-based, human; details: TNK 12 μg/mL, t-PA 4 μg/mL
Experimental: Blood samples for the in vitro study were obtained from 9 healthy volunteers. None of the subjects smoked or had hypertension, diabetes, or an abnormal hematocrit. None had received aspirin or any other antiplatelet drugs. All subjects underwent blood sampling after at least 30 minutes of rest and 2 or more hours of fasting. Blood was drawn from an antecubital vein between 8 am and 10 am in order to avoid any diurnal influence. A 21-gauge butterfly needle was used to draw blood into a tube containing 3.8% sodium citrate (1:9 volume); the first 1.5 mL of free running blood was discarded. One tube was kept as an internal control. A second tube was incubated with tenecteplase (TNK) for 30 minutes at room temperature in order to achieve a final concentration of 12 μg/mL. The third tube was similarly incubated with alteplase (t-PA) to achieve a concentration of 4 μg/mL. The concentrations of TNK and t-PA that were chosen approximated conventional plasma levels observed in patients receiving TNK and t-PA bolus (30 mg, and 15 mg, respectively; data on file, Genentech, Inc., South San Francisco, Calif.). Fresh solutions of TNK and t-PA were prepared in Dulbecco's phosphate buffered saline (DPBS) ex tempore on the morning of the platelet studies.
The surface expression of platelet receptors was determined by flow cytometry by using the following monoclonal antibodies: CD 41 (glycoprotein [GP] IIb/IIIa, α IIbβ3) CD 42b (GP Ib), CD 62p (P-selectin), CD 51/CD 61 (αvβ3, or vitronectin receptor), CD 31 (platelet endothelial cell adhesion molecule [PECAM]-1), CD 107a (LAMP-1), CD 107b (LAMP-2), CD 63 (LIMP or LAMP-3), and CD 151 (PETA-3) (PharMingen, San Diego, Calif.). Platelet-leukocyte interactions were assessed by using dual antibodies for a pan-platelet marker (CD 41), together with CD 14, a monocyte/macrophage marker. The blood-citrate mixture (50 μl) was diluted with 450 μl Tris buffered saline (TBS) (10 mmol/L Tris, 0.15 mol/L sodium chloride) and mixed by gently inverting an Eppendorf tube 2 times. The corresponding antibody was then added (5 μl) and incubated at 4° C. for 30 minutes. After incubation, 400 μl of 2% buffered paraformaldehyde was added for fixation. The samples were analyzed on a Becton Dickinson FACScan flow cytometer set up to measure fluorescent light scatter, as previously described. All parameters were collected by using 4-decade logarithmic amplification. The data were collected in list mode files and then analyzed. P-selectin was expressed as percent positive cells. Other antigens were expressed as log mean fluorescence intensity.
For all comparisons, statistical analyses were done by using repeated measures ANOVA. Post hoc comparison was performed by use of the Bonferroni t-test to identify specific differences in platelet aggregation and receptor expression between patients treated with TNK and t-PA, and controls. The Mann-Whitney U test was used to analyze non-parametric data. Normally distributed data were expressed as mean±SE, and skewed data as median (range). Probability values of P<0.05 were regarded as statistically significant. Linear regression analysis was applied to normally distributed data for all study participants by using the Statview 4.1 program for analysis.

B1: t-PA: recombinant tissue plasminogen activator, thrombolytic agent (Genentech) (protein, UniProt P00750 36-562, looked up)
Tissue-type plasminogen …: SYQVICRDEKTQMIYQQHQSWLRPVLRSNRVEYCWCNSGRAQCHSVPVKSCSEPRCFNGGTCQQALYFSDFVCQCPEGFAGKCCEIDTRATCYEDQGISYRGTWSTAESGAECTNWNSSALAQKPYSGRRPDAIRLGLGNHNYCRNPDRDSKPWCYVFKAGKYSSEFCSTPACSEGNSDCYFGNGSAYRGTHSLTESGASCLPWNSMILIGKVYTAQNPSAQALGLGKHNYCRNPDGDAKPWCHVLKNRRLTWEYCDVPSCSTCGLRQYSQPQFRIKGGLFADIASHPWQAAIFAKHRRSPGERFLCGGILISSCWILSAAHCFQERFPPHHLTVILGRTYRVVPGEEEQKFEVEKYIVHKEFDDDTYDNDIALLQLKSDSSRCAQESSVVRTVCLPPADLQLPDWTECELSGYGKHEALSPFYSERLKEAHVRLYPSSRCTSQHLLNRTVTDNMLCAGDTRSGGPQANLHDACQGDSGGPLVCLNDGRMTLVGIISWGLGCGQKDVPGVYTKVTNYLDWIRDNMRP
Platelets [1]
  platelet aggregation, change between baseline and other time points: no statistically significant differences
Platelets [2]
  expression of PECAM-1 compared with saline-treated samples: trend toward diminished expression
  expression of glycoprotein IIb/IIIa compared with saline-treated samples: reduced expression
  formation of platelet-monocyte aggregates compared with saline-treated samples: trend toward diminished
